Among the data in publication PMC11861591 are response values, retold here.

In this experiment the target is V5-LC3, Q9GZQ8. Put plainly: co-immunoprecipitation (Flag IP), western blot band quantification. The settings on record: chain shown with the change; HEK293T cells expressing V5-LC3 and Flag-RhoC; n = 3; parent: est. 4.6; read off a plot; scale: relative IP LC3-II protein level. For orientation: A western blot detects proteins with antibodies after separation by electrophoresis.

B1: Flag-tagged RhoC (wild type), P08134 F154A; L157A (protein)
chain: MAAIRKKLVIVGDGACGKTCLLIVFSKDQFPEVYVPTVFENYIADIEVDGKQVELALWDTAGQEDYDRLRPLSYPDTDVILMCFSIDSPDSLENIPEKWTPEVKHFCPNVPIILVGNKKDLRQDEHTRRELAKMKQEPVRSEEGRDMANRISAAGYAECSAKTKEGVREVFEMATRAGLQVRKNKRRRGCPIL
As for B1, the response was 1.2.

B2: Flag-tagged RhoC (wild type), P08134 Y66A; L69A (protein)
chain: MAAIRKKLVIVGDGACGKTCLLIVFSKDQFPEVYVPTVFENYIADIEVDGKQVELALWDTAGQEDADRARPLSYPDTDVILMCFSIDSPDSLENIPEKWTPEVKHFCPNVPIILVGNKKDLRQDEHTRRELAKMKQEPVRSEEGRDMANRISAFGYLECSAKTKEGVREVFEMATRAGLQVRKNKRRRGCPIL
Regarding B2, the response amounted to 2.1.

B3: Flag-tagged RhoC (wild type), P08134 Y66A; L69A; F154A; L157A (protein)
chain: MAAIRKKLVIVGDGACGKTCLLIVFSKDQFPEVYVPTVFENYIADIEVDGKQVELALWDTAGQEDADRARPLSYPDTDVILMCFSIDSPDSLENIPEKWTPEVKHFCPNVPIILVGNKKDLRQDEHTRRELAKMKQEPVRSEEGRDMANRISAAGYAECSAKTKEGVREVFEMATRAGLQVRKNKRRRGCPIL
Regarding B3, the response came to 1.

B4: Flag-tagged RhoC (wild type), P08134 F30A; V33A (protein)
chain: MAAIRKKLVIVGDGACGKTCLLIVFSKDQAPEAYVPTVFENYIADIEVDGKQVELALWDTAGQEDYDRLRPLSYPDTDVILMCFSIDSPDSLENIPEKWTPEVKHFCPNVPIILVGNKKDLRQDEHTRRELAKMKQEPVRSEEGRDMANRISAFGYLECSAKTKEGVREVFEMATRAGLQVRKNKRRRGCPIL
As for B4, the response amounted to 4.7.
